In data set [1] the target is Klebsiella pneumoniae RstA N-terminal receiver domain (Klebsiella pneumoniae) (UniProt A6T8N1). The data set is described as follows: NMR line-widths; inactive kpRstA RD (without BeF3-) at high concentrations; data not shown.
Data set [2] concerns the molecule itself. The experiment in a line: SEC; full-length kpRstA in the presence of BeF3-; data not shown. For orientation: In gel filtration, larger molecules generally elute earlier.
Data set [3] addresses kpRstA DBD R207A (Klebsiella pneumoniae, UniProt A6T8N1 130-236, R207A). The data set is described as follows: ITC; binding completely abolished; DNA-16a per Figure 1E legend (Table 1 says DNA-22); ITC 25 C: 20 mM Tris pH 7.5, 100 mM NaCl (DBD); plus 7 mM MgCl2 with or without 5.3 mM BeSO4 and 35 mM NaF (full-length). NMR of complex: 20 mM Na phosphate pH. The note with it: protein: recombinant; tags: N-terminal M-6H-AMG; chain copies: 2. On the technique in general: ITC needs no label: the signal is the heat of the interaction.

Data set [4] deals with T1, kpRstA DBD (Klebsiella pneumoniae, UniProt A6T8N1 130-236).
T1 sequence: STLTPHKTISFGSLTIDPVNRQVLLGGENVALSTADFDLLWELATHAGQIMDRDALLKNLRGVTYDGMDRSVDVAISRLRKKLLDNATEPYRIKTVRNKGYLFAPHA
The data set is described as follows: ITC; one-site model, N = 1.05 (text gives error 0.54); ITC 25 C: 20 mM Tris pH 7.5, 100 mM NaCl (DBD); plus 7 mM MgCl2 with or without 5.3 mM BeSO4 and 35 mM NaF (full-length). NMR of complex: 20 mM Na phosphate pH. To be noted: protein: recombinant; tags: N-terminal M-6H-AMG; chain copies: 2.

The target of data set [5] is T1, kpRstA DBD. The experiment in a line: ITC; sequential model, KD1 (first site); ITC 25 C: 20 mM Tris pH 7.5, 100 mM NaCl (DBD); plus 7 mM MgCl2 with or without 5.3 mM BeSO4 and 35 mM NaF (full-length). NMR of complex: 20 mM Na phosphate pH. To be noted: protein: recombinant; tags: N-terminal M-6H-AMG; chain copies: 2.
For data set [6], the target named is T2, kpRstA full-length (Klebsiella pneumoniae, UniProt A6T8N1 1-239).
T2 sequence: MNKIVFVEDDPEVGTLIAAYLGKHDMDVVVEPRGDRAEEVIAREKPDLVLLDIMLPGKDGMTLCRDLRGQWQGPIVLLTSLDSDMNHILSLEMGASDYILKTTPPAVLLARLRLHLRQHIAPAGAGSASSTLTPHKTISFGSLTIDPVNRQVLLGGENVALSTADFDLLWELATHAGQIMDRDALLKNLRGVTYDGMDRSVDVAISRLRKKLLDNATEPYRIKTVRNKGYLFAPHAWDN
The data set is described as follows: ITC; without BeF3-, 7 mM MgCl2; sequential model, KD1; ITC 25 C: 20 mM Tris pH 7.5, 100 mM NaCl (DBD); plus 7 mM MgCl2 with or without 5.3 mM BeSO4 and 35 mM NaF (full-length). NMR of complex: 20 mM Na phosphate pH. To be noted: protein: recombinant; tags: His-tag removed by thrombin; N-terminal GSAMA remains; chain copies: 2.

The stoichiometry N is a count of units in the complex or per binding partner. In the case of “Klebsiella pneumoniae RstA N-terminal receiver domain (from UniProt A6T8N1 1-119) (domain or fragment)”, the stoichiometry N in data set [1] came to 2.

B1: full-length Klebsiella pneumoniae RstA (natural protein)
chain: GSAMAMNKIVFVEDDPEVGTLIAAYLGKHDMDVVVEPRGDRAEEVIAREKPDLVLLDIMLPGKDGMTLCRDLRGQWQGPIVLLTSLDSDMNHILSLEMGASDYILKTTPPAVLLARLRLHLRQHIAPAGAGSASSTLTPHKTISFGSLTIDPVNRQVLLGGENVALSTADFDLLWELATHAGQIMDRDALLKNLRGVTYDGMDRSVDVAISRLRKKLLDNATEPYRIKTVRNKGYLFAPHAWDN
notes: RstA response regulator of Klebsiella pneumoniae, full length (RD residues 1-119, DBD residues 131-236); Cloned in a modified pET32a(+) lacking the enterokinase site; also called kpRstA; full-length kpRstA; source: E. coli BL21(DE3), purified (Ni-NTA, Superdex-75 SEC, thrombin digestion); not shown: His-tag, N-terminal, cleaved
B1: the “stoichiometry N” value in data set [2] turned out to be 2.

B2: DNA-16a (dsDNA)
DNA 1: ACGTTGTACATTCCGT
DNA 2: ACGGAATGTACAACGT
By Kd is commonly meant the equilibrium constant for the complex coming apart. Consider B2, for which the binding result in data set [3] is reported as “no binding”. In addition, the Kd in data set [4] was determined as 8.17 ± 0.53 µM.

B3: DNA-22 (dsDNA)
DNA 1: GTTGTACATTCCGTTACTCCCT
DNA 2: AGGGAGTAACGGAATGTACAAC
As for B3, the Kd came to 10.3 ± 1.14 µM in data set [5] and 45.5 ± 8.41 µM in data set [6].

The record behind these values is article PMC4117788, “Structural dynamics of the two-component response regulator RstA in recognition of promoter DNA element” (Nucleic Acids Research, 2014).
